Earlier results, collected in doi:10.64898/2025.12.23.696170.

Key:
[1] = target: ATR2 (Homo sapiens) (UniProt P50052)
[2] = target: ATR1 (Homo sapiens) (UniProt P30556)
Sequence of UniProt P30556 (P30556 whole entry): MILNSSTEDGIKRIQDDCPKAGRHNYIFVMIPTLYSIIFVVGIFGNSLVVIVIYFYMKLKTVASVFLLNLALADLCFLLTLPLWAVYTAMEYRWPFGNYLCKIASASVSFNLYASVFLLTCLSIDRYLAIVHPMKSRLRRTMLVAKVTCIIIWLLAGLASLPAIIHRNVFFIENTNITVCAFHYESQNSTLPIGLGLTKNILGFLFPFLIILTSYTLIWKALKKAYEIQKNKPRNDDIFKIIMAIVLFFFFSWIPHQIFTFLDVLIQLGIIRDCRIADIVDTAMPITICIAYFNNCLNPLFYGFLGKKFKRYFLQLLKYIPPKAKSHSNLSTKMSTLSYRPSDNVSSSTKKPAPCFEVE

Sequence of UniProt P50052 (P50052 whole entry): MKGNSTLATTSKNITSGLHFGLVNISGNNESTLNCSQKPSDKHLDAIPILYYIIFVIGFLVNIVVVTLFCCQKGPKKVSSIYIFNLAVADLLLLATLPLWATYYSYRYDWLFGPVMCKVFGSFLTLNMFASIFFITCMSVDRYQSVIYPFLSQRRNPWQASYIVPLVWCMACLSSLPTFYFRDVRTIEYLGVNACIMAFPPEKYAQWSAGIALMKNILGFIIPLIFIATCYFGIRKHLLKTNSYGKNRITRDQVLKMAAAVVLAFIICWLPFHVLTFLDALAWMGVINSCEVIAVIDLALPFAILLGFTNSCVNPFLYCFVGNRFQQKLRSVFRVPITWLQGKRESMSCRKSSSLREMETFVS

**Q.** With Angiotensin II (from UniProt P01019) as the substance, how does the Ki [1] read?
**A.** 0.3 nM

**Q.** And the Ki [2]?
**A.** 0.2 nM
